According to article PMC5845931:

What was measured:
[1] = target: PepTSt wild type, proton-dependent oligopeptide transporter from Streptococcus thermophilus (Streptococcus thermophilus) (UniProt Q5M4H8); assay: MST; label-free (intrinsic tryptophan fluorescence of PepTSt); 125 nM PepTSt constant, peptide titrated up to the millimolar range; 22°C; pH 7.5, 100 mM Tris-HCl, 150 mM NaCl, 0.03% DDM
[2] = target: PepTSt wild type, proton-dependent oligopeptide transporter from Streptococcus thermophilus (Streptococcus thermophilus) (UniProt Q5M4H8); assay: MST; label-free (intrinsic tryptophan fluorescence of PepTSt); 125 nM PepTSt constant, peptide titrated; 22°C; pH 4.5, 100 mM citrate, 150 mM NaCl, 0.03% DDM
[3] = target: PepTSt wild type, proton-dependent oligopeptide transporter from Streptococcus thermophilus (Streptococcus thermophilus) (UniProt Q5M4H8); assay: MST; label-free (intrinsic tryptophan fluorescence of PepTSt); 125 nM PepTSt constant, peptide titrated up to the millimolar range; 22°C; pH 7.5, 100 mM HEPES, 150 mM NaCl, 0.03% DDM
[4] = target: PepTSt wild type, proton-dependent oligopeptide transporter from Streptococcus thermophilus (Streptococcus thermophilus) (UniProt Q5M4H8); assay: MST; label-free (intrinsic tryptophan fluorescence of PepTSt); 125 nM PepTSt constant, peptide titrated; 22°C; pH 5.0, 100 mM citrate, 150 mM NaCl, 0.03% DDM
[5] = target: PepTSt wild type, proton-dependent oligopeptide transporter from Streptococcus thermophilus (Streptococcus thermophilus) (UniProt Q5M4H8); assay: MST; label-free (intrinsic tryptophan fluorescence of PepTSt); 125 nM PepTSt constant, peptide titrated; 22°C; pH 5.5, 100 mM citrate, 150 mM NaCl, 0.03% DDM
[6] = target: PepTSt wild type, proton-dependent oligopeptide transporter from Streptococcus thermophilus (Streptococcus thermophilus) (UniProt Q5M4H8); assay: MST; label-free (intrinsic tryptophan fluorescence of PepTSt); 125 nM PepTSt constant, peptide titrated up to the millimolar range; 22°C; pH 7.5, 100 mM NaPi, 150 mM NaCl, 0.03% DDM

Substance	Kd [1] [mM]	other results
Ala-Asp (peptide)	> 100	
Ala-Leu (peptide)		Kd [2]: > 50 mM; Kd [3]: 0.56 mM
Ala-Phe (peptide)	0.95	
Asp-Glu (peptide)	> 50	
Leu-Ala (peptide)	13.8	Kd [2]: > 100 mM; Kd [4]: 47 mM; Kd [5]: 23 mM; Kd [6]: 9.56 mM; Kd [3]: 13.3 mM

The remaining substances from weak to strong by Kd [1], led by results:

Kd [1] [mM]	Substance	other results
10.9	Phe-Ala (peptide)	
8.59	Ala-Ala (peptide)	
6.82	Ala-Gln (peptide)	
3.56	Leu-Leu (peptide)	
